From patent publication US20200317768A1 (published 2020)

T1: human FcγRIIb constitutively expressed on MDCK cells (human, UniProt P31994 43-310)
T1 sequence (looked up): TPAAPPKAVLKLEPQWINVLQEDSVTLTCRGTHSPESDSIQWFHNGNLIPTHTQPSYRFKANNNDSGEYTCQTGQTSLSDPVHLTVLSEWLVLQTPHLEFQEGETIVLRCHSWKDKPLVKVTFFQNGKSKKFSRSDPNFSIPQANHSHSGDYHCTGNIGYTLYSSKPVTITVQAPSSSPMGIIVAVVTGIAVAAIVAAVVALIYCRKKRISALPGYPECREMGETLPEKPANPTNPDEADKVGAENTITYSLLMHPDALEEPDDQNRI

T2: soluble mouse FcγRII, His-tagged (mouse, UniProt P08101 30-210, limits assumed)
T2 construct: Captured on the chip by an anti-His antibody
T2 sequence (looked up): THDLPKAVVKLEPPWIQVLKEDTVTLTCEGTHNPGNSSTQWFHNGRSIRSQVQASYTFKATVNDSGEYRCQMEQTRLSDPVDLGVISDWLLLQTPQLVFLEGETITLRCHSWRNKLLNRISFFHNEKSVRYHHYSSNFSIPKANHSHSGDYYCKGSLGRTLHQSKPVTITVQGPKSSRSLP

B1: M103205H795-P1497m/M103202L889-SK1 (antibody, human IgG1, kappa)
heavy: not shown
light: DIVMTQSPATLSLSPGERATLSCTSSQSVYHANWLSWFQQKPGQPPKLLIYWASTLAYGVPSRFSGSGSGTDFTLTISSLQPEDAATYYCAGGYGGGRYAFGQGTKVEIKRTVAAPSVFIFPPSDEQLKSGTASVVCLLNNFYPREAKVQWKVDNALQSGNSQESVTEQDSKDSTYSLSSTLTLSKADYEKHKVYACEVTHQGLSSPVTKSFNRGEC
B2: M103205H795-P1500m/M103202L889-SK1 (antibody, human IgG1, kappa)
heavy: not shown
light: B1 light
B3: M103205H795-P1528m/M103202L889-SK1 (antibody, human IgG1, kappa)
heavy: not shown
light: B1 light
B4: M103205H795-P1535m/M103202L889-SK1 (antibody, human IgG1, kappa)
heavy: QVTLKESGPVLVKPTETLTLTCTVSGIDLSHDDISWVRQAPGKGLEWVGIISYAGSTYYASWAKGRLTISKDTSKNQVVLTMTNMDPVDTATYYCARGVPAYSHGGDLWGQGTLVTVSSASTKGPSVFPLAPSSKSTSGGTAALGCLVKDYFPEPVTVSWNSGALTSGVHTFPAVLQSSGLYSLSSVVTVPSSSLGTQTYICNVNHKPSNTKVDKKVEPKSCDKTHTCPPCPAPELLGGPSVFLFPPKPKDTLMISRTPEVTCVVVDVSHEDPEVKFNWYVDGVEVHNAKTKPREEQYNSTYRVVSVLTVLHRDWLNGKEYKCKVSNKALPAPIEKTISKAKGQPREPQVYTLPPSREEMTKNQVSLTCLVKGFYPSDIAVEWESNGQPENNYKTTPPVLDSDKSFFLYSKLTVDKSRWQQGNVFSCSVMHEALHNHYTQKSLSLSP
light: B1 light
B5: M103205H795-P1534m/M103202L889-SK1 (antibody, human IgG1, kappa)
heavy: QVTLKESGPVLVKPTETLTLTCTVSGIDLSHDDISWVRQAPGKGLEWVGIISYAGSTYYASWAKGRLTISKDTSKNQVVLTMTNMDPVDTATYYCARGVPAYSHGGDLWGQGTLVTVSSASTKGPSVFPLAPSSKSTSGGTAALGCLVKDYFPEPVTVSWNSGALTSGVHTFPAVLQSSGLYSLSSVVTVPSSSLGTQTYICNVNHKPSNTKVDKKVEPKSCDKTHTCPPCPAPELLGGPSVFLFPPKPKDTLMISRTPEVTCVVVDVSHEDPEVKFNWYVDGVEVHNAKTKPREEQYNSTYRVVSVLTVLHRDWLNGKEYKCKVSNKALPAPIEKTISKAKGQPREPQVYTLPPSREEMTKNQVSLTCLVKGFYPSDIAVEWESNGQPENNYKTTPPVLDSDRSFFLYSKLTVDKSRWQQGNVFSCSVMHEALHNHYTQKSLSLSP
light: B1 light
B6: M103205H795-P1533m/M103202L889-SK1 (antibody, human IgG1, kappa)
heavy: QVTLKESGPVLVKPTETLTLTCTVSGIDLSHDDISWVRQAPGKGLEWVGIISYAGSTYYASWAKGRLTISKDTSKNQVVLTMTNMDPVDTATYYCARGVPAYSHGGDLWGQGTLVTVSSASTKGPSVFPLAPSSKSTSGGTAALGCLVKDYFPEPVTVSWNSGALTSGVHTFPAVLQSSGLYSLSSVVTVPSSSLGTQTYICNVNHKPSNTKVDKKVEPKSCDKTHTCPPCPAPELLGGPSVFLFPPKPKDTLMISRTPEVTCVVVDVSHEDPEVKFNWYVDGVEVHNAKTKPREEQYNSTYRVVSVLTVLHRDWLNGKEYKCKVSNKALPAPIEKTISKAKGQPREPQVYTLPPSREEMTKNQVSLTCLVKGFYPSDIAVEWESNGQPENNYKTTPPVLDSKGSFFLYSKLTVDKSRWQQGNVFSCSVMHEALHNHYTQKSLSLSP
light: B1 light
B7: M103205H795-P1529m/M103202L889-SK1 (antibody, human IgG1, kappa)
heavy: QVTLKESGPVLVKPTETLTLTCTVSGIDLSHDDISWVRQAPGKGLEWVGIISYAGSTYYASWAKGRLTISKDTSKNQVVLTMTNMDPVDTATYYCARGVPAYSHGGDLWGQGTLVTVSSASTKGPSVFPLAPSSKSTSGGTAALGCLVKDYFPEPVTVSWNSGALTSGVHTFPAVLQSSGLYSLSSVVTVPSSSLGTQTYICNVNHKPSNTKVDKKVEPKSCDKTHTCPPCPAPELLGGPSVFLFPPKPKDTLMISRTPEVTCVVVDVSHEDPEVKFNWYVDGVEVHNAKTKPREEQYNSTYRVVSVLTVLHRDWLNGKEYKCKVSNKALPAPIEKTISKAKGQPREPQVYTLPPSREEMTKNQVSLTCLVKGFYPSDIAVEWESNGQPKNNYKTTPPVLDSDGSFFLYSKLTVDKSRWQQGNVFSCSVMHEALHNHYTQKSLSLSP
light: B1 light
B8: M103205H795-P1526m/M103202L889-SK1 (antibody, human IgG1, kappa)
heavy: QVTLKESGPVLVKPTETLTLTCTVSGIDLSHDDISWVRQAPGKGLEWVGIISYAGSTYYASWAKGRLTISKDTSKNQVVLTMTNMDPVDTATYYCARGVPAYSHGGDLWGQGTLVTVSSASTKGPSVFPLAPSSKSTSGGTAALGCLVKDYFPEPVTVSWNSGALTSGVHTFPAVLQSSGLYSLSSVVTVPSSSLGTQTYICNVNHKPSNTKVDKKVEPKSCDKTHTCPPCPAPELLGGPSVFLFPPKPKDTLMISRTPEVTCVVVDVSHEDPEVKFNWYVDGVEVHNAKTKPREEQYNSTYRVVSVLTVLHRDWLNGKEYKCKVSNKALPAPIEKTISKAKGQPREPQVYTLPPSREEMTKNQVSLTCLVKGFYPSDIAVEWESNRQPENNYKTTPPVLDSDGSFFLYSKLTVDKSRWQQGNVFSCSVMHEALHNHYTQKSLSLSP
light: B1 light
B9: M103205H795-P1532m/M103202L889-SK1 (antibody, human IgG1, kappa)
heavy: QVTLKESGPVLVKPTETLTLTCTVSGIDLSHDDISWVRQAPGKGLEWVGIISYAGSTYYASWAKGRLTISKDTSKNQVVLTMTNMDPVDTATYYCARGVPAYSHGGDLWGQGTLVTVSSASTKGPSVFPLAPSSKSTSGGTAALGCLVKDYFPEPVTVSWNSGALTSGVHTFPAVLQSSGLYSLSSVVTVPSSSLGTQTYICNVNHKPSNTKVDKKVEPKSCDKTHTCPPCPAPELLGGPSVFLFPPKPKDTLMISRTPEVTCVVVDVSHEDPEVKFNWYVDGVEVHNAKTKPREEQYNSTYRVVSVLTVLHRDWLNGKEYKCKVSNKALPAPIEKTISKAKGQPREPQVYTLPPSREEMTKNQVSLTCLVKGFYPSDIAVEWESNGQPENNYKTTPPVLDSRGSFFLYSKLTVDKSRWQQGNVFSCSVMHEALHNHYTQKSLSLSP
light: B1 light
B10: M103205H795-P1499m/M103202L889-SK1 (antibody, human IgG1, kappa)
heavy: not shown
light: B1 light
notes: also called MS1032LO06-P1499m
B11: M103205H795-P1531m/M103202L889-SK1 (antibody, human IgG1, kappa)
heavy: not shown
light: B1 light
B12: M103205H795-P1524m/M103202L889-SK1 (antibody, human IgG1, kappa)
heavy: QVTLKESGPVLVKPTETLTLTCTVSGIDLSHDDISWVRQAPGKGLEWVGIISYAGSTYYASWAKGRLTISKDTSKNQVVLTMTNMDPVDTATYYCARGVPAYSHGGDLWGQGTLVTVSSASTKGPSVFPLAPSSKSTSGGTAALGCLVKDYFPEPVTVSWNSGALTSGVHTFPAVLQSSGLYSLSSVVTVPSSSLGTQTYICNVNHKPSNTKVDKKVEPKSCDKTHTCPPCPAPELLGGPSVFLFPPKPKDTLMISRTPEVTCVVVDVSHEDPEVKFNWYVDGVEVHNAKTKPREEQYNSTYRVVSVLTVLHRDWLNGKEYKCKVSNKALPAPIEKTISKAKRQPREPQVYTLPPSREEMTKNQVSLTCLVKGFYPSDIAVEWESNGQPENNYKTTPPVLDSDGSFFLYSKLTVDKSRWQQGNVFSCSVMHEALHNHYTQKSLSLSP
light: B1 light
B13: M103205H795-P1523m/M103202L889-SK1 (antibody, human IgG1, kappa)
heavy: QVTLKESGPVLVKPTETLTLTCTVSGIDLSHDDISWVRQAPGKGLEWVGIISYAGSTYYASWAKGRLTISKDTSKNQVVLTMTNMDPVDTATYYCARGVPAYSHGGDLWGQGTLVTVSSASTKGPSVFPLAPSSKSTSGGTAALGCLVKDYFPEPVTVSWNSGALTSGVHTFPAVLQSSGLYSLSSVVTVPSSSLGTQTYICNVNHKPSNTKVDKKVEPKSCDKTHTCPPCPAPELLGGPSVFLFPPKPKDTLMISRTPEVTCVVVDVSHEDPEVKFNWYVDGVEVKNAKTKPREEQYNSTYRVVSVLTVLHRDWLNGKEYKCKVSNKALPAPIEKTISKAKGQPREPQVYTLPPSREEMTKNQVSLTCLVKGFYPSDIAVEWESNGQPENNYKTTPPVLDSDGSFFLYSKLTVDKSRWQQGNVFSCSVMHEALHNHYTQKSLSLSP
light: B1 light
B14: M103205H795-P1527m/M103202L889-SK1 (antibody, human IgG1, kappa)
heavy: not shown
light: B1 light
B15: M103205H795-P1498m/M103202L889-SK1 (antibody, human IgG1, kappa)
heavy: not shown
light: B1 light
B16: M103205H795-P1522m/M103202L889-SK1 (antibody, human IgG1, kappa)
heavy: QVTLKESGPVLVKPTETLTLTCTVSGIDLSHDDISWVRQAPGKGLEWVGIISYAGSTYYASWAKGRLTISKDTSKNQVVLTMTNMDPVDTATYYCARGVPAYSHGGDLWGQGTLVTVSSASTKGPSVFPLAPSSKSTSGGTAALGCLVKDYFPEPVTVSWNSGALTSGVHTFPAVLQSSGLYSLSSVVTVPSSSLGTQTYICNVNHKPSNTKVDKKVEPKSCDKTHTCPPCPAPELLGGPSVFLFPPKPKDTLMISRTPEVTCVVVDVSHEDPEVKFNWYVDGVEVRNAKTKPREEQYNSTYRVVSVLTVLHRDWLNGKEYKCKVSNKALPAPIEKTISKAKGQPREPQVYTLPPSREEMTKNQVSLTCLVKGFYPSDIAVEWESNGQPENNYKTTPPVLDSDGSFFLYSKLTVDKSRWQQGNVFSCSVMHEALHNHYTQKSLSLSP
light: B1 light
B17: M103205H795-P1530m/M103202L889-SK1 (antibody, human IgG1, kappa)
heavy: not shown
light: B1 light
B18: M103205H795-P1501m/M103202L889-SK1 (antibody, human IgG1, kappa)
heavy: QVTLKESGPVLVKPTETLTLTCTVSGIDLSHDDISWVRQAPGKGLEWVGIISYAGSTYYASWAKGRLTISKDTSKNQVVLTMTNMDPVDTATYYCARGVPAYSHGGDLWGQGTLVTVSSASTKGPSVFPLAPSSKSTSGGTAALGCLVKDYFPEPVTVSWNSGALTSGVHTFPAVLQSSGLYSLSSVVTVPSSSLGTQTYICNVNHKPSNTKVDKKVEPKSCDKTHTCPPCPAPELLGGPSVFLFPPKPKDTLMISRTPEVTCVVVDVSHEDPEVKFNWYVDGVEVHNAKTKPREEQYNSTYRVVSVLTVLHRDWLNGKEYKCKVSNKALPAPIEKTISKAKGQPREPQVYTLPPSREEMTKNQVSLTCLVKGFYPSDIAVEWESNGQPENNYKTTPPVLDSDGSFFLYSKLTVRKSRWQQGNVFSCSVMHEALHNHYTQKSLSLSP
light: B1 light
B19: M103205H795-P1525m/M103202L889-SK1 (antibody, human IgG1, kappa)
heavy: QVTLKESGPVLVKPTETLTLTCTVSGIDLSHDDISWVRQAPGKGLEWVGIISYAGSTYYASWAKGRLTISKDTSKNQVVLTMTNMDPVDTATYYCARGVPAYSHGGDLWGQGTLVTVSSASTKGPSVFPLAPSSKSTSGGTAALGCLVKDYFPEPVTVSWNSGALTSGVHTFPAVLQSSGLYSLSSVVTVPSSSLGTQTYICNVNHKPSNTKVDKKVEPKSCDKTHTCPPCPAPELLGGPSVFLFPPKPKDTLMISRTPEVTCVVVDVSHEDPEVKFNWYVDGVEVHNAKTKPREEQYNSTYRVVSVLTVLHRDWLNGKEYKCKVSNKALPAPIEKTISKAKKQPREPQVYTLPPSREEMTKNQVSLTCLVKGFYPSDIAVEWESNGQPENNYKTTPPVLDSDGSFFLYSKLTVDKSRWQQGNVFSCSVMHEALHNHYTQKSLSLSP
light: B1 light

Biological target: T1, human FcγRIIb constitutively expressed …
Assay: cell-based or functional assay

celluar uptake	Binder
1.38 relative to SG1 (=1.00)	B1
1.82 relative to SG1 (=1.00)	B2
3.02 relative to SG1 (=1.00)	B3
2.49 relative to SG1 (=1.00)	B4
3.12 relative to SG1 (=1.00)	B5
3.52 relative to SG1 (=1.00)	B6
2.86 relative to SG1 (=1.00)	B7
1.2 relative to SG1 (=1.00)	B8
4.16 relative to SG1 (=1.00)	B9
3.61 relative to SG1 (=1.00)	B10
2.35 relative to SG1 (=1.00)	B11
3.66 relative to SG1 (=1.00)	B12
1.91 relative to SG1 (=1.00)	B13
0.92 relative to SG1 (=1.00)	B14
1.56 relative to SG1 (=1.00)	B15
2.13 relative to SG1 (=1.00)	B16
3.12 relative to SG1 (=1.00)	B17
2.4 relative to SG1 (=1.00)	B18
3.55 relative to SG1 (=1.00)	B19

Biological target: T2, soluble mouse FcγRII, His-tagged
Assay: SPR, mouse FcgRII-His captured, antigen-antibody complex injected, pH7.4, 25C
Procedure: Regarding the produced Fc region variant-containing antibodies, binding assays between soluble mouse FcγRII and antigen-antibody complexes were performed using BIACORE® T200 (GE Healthcare). Soluble mouse FcγRII was produced in the form of a His-tagged molecule by a method known to those skilled in the art. An appropriate amount of an anti-His antibody was fixed onto Sensor chip CM5 (GE Healthcare) by the amine coupling method using a His capture kit (GE Healthcare) to capture mouse FcγRII. Next, an antibody-antigen complex and a running buffer (as a reference solution) were injected, and interaction was allowed to take place with the mouse FcγRII captured onto the sensor chip. 20 mM N-(2-Acetamido)-2-aminoethanesulfonic acid, 150 mM NaCl, 1.2 mM CaCl₂, and 0.05% (w/v) TWEEN, 20 at pH7.4 was used as the running buffer, and the respective buffer was also used to dilute the soluble mouse FcγRII. To regenerate the sensor chip, 10 mM glycine-HCl at pH1.5 was used. All measurements were carried out at 25° C. […] To calculate the parameters, the BIACORE® T100 Evaluation Software (GE Healthcare) was used.

biacore IC binding	Binder
1.49 relative to SG1 (=1.00)	B1
1.32 relative to SG1 (=1.00)	B2
1.12 relative to SG1 (=1.00)	B3
1.11 relative to SG1 (=1.00)	B4
1.12 relative to SG1 (=1.00)	B5
1.18 relative to SG1 (=1.00)	B6
1.08 relative to SG1 (=1.00)	B7
1.04 relative to SG1 (=1.00)	B8
1.23 relative to SG1 (=1.00)	B9
1.98 relative to SG1 (=1.00)	B10
1.01 relative to SG1 (=1.00)	B11
1.4 relative to SG1 (=1.00)	B12
1.19 relative to SG1 (=1.00)	B13
0.98 relative to SG1 (=1.00)	B14
1.38 relative to SG1 (=1.00)	B15
1.24 relative to SG1 (=1.00)	B16
1.09 relative to SG1 (=1.00)	B17
1.82 relative to SG1 (=1.00)	B18
1.31 relative to SG1 (=1.00)	B19
